{"source": "paper PMC5557857", "about": "(2017)", "molecules": {"B1": {"name": "11S (beta-strands 1-9 of NanoLuc, main fragment of NanoBiT) (domain or fragment)", "chain": "MVFTLEDFVGDWEQTAAYNLDQVLEQGGVSSLLQNLAVSVTPIQRIVRSGENALKIDIHVIIPYEGLSADQMAQIEEVFKVVYPVDDHHFKVILPYGTLVIDGVTPNMLNYFGRPYEGIAVFDGKKITVTGTLWNGNKIIDERLITPDGSMLFRVTINS"}}, "key": {"[1]": {"target": "epidermal growth factor receptor 2 (HER2) expressed on SKOV3 cells (human (endogenous in SKOV3)) (UniProt P04626)", "assay": "split reporter (BiFC, NanoBiT); TEC screen: HER2-expressing SKOV3 cells incubated 1 hr at ambient temperature with clarified lysates of one β9 fusion and one β10 fusion (PBS + 1% BSA), washed 3 times, luminescence 30 min after Δ11S lysate (1:20) and Nano-Glo substrate; signal-to-background, average of three days"}, "β10 peptide (synthetic)": {"target": "T1, β10 peptide (synthetic) (Oplophorus gracilirostris, Synthetic 11-mer. The sequence is only in Table S1, so the high-affinity NanoBiT peptide 86 (HiBiT-type) variant of strand 10 is assumed. Termini are not stated.)", "T1 chain": "VSGWRLFKKIS", "assay": "luminescence complementation, 10 uM Nano-Glo substrate"}}}
{"molecule": "β9-9.29 (DARPin 9.29 with β9 at the N-terminus) (designed binder)", "values": [{"measurement": "TEC signal-to-background with PertH-β10", "setting": "[1]", "result": 671}, {"measurement": "TEC signal-to-background with β10-L73J", "setting": "[1]", "result": 173}]}
{"molecule": "β9-G3 (DARPin G3 with β9 at the N-terminus) (designed binder)", "values": [{"measurement": "TEC signal-to-background with 9.29-β10", "setting": "[1]", "result": 122}, {"measurement": "TEC signal-to-background with 73JH-β10", "setting": "[1]", "result": 219}]}
{"molecule": "9.29-β10 (DARPin 9.29 with β10 at the C-terminus) (designed binder)", "values": [{"measurement": "TEC signal-to-background with PertH-β9", "setting": "[1]", "result": 346}, {"measurement": "TEC signal-to-background with β9-G3", "setting": "[1]", "result": 122}, {"measurement": "TEC signal-to-background with β9-L73J", "setting": "[1]", "result": 597}, {"measurement": "TEC signal-to-background with β9-LPert", "setting": "[1]", "result": 265}]}
{"molecule": "β10-G3 (DARPin G3 with β10 at the N-terminus) (designed binder)", "values": [{"measurement": "TEC signal-to-background with β9-L73J", "setting": "[1]", "result": 197}]}
{"molecule": "G3-β9 (DARPin G3 with β9 at the C-terminus) (designed binder)", "values": [{"measurement": "TEC signal-to-background with PertH-β10", "setting": "[1]", "result": 122}, {"measurement": "TEC signal-to-background with β10-L73J", "setting": "[1]", "result": 126}]}
{"molecule": "G3-β10 (DARPin G3 with β10 at the C-terminus) (designed binder)", "values": [{"measurement": "TEC signal-to-background with PertH-β9", "setting": "[1]", "result": 103}, {"measurement": "TEC signal-to-background with β9-L73J", "setting": "[1]", "result": 1360}, {"measurement": "TEC signal-to-background with β9-LPert", "setting": "[1]", "result": 353}]}
{"molecule": "B1", "values": [{"measurement": "Kd", "setting": "β10 peptide (synthetic)", "result": 4, "unit": "nM"}]}
